Biological target: the molecule itself
Experiment: crystal structure; MeMeaC with malic acid, 1.95 Å, space group P6_(3), one molecule in the asymmetric unit; trimer by crystallographic symmetry (PDBePISA also suggested a trimer)

B1: mesaconyl-CoA hydratase from Methylorubrum extorquens CM4 (enzyme, UniProt C5B1K4 1-348, looked up)
chain: MKTNPGRFFEDFRLGETIRHATPRTVTTGDVALYTALYGPRFAVQSSDAFAKAIGHPASPLDDLLTFHVVFGKTVPDVSLNALANLGYAEGGFHRPVYPGETLSTVSEVIGLKESSNRQTGVVYVRSTGSDASGQTVLSYCRWVLVRKRDPEAKIAEEHVPQLAKVVNPADLAHALPPLDPAAYDNALAGSPHRFADYAVGEKIDHVDGMTVEEAEHQIATRLFQNTAKVHFDAVATKETKFGKRLIYGGHVISLARALSFNGLANAFAIGGINAGRHVAPLFAGDTVYAWSEVLETAELPGRSDIGALRLRTVATKNQSCGAYPDKQGEGYDPSVILDLDYWAFIPR
notes: Mesaconyl-CoA hydratase MeaC (locus Mchl_4075) of Methylorubrum extorquens CM4; subdomains printed as residues 1~147 (MeaC^N), 148~190 (MeaC^Br) and 191~348 (MeaC^C); Surmised: cloning into pET30a by NdeI/XhoI with a reverse primer that has no stop codon would put the vector's His6 tag (after Leu-Glu) at the C-terminus; also called MeMeaC; MeaC; source: E. coli BL21(DE3)-T1R, purified (Ni-NTA, …)
stoichiometry N: 3
